Results on two molecules are retold here after publication PMC9002095, “A SIRPαFc Fusion Protein Conjugated With the Collagen-Binding Domain for Targeted Immunotherapy of Non-Small Cell Lung Cancer” (Frontiers in Immunology, 2022).

Usually Kd stands for the equilibrium constant for the complex coming apart. Read a low Kd as tighter binding.

One assay has as its target T1, human CD47 (human, UniProt Q08722 19-323).
T1 construct: CD47, human, in solution as the analyte of Biacore
Put plainly: SPR; Biacore T200; SIRPαFc or CBD–SIRPαFc caught on a CM5 chip activated by EDC-NHS; human CD47 in six concentrations flowed over. As to conditions: both partners purified.

The target of a further assay is T2, collagen type I (UniProt P02454 152-1207; P02466 86-1125).
T2 construct: collagen type I, alpha 1 chain; collagen type I, alpha 2 chain; also called collagen I; source: bought: Corning
T2 sequence (P02454 152-1207, chain 1 of 2): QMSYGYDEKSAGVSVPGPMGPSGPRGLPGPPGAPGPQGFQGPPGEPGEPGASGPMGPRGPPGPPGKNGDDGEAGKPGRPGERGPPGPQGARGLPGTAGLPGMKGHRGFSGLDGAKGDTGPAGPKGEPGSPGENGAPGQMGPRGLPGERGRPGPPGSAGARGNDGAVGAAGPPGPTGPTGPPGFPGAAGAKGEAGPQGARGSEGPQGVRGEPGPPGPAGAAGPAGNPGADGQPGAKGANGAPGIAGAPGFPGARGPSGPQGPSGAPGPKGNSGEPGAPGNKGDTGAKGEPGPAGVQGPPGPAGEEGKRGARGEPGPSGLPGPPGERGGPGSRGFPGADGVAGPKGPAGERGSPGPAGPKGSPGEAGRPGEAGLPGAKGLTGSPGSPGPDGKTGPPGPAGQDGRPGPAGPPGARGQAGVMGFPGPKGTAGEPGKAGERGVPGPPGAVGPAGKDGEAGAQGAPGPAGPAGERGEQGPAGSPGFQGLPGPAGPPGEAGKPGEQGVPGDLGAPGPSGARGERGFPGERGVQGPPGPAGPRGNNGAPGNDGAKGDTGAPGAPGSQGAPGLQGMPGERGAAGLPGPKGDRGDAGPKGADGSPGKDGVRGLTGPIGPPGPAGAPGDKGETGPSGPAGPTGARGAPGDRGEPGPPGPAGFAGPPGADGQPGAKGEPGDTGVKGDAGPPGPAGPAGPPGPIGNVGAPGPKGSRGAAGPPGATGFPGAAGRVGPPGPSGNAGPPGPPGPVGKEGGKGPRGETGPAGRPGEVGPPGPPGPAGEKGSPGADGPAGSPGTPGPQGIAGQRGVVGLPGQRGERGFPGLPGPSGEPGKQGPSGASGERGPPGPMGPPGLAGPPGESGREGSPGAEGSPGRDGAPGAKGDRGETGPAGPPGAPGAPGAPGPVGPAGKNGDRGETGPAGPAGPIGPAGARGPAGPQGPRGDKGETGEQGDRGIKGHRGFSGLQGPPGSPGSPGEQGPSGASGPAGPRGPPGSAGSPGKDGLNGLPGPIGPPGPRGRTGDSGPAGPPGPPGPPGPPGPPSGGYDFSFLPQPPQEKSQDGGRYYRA
T2 sequence (P02466 86-1125, chain 2 of 2): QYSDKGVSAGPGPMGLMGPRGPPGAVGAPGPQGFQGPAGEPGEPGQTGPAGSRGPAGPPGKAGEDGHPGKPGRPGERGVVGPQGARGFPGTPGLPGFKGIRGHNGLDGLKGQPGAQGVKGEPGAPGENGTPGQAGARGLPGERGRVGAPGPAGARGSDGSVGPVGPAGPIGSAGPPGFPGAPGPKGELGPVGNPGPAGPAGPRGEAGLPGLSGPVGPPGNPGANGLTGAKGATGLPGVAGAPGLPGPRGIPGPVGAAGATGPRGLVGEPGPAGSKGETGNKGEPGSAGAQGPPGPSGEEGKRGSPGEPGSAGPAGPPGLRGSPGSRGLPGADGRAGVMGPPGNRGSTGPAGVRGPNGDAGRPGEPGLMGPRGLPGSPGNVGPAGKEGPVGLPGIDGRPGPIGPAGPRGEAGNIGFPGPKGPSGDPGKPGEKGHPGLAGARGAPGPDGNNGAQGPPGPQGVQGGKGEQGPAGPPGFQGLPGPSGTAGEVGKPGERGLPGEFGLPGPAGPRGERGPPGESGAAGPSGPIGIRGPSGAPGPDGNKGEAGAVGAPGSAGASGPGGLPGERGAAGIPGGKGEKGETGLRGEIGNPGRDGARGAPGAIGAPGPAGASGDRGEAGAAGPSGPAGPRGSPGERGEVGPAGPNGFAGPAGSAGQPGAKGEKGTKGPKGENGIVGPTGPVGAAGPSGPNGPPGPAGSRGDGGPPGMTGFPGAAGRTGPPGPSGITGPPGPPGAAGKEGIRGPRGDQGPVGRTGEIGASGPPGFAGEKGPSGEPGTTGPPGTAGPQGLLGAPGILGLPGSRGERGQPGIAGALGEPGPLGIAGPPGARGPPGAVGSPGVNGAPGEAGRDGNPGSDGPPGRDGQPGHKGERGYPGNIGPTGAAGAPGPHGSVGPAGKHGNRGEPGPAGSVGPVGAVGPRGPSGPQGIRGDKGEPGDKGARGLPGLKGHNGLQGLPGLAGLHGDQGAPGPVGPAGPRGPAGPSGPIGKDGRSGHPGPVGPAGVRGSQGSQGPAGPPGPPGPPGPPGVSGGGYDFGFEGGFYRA
Nature of the assay: ELISA; 96-well plate coated with 100 μg/ml collagen type I or 2% BSA at 4°C overnight, blocked with 2% BSA in PBS-T; SIRPαFc or CBD–SIRPαFc in five concentrations, 37°C, 2 h; detected with HRP anti-human IgG1 Fc antibody; KD by non-linear regression (one-site specific binding). As to conditions: both partners purified.

T1 sequence (Q08722 19-323): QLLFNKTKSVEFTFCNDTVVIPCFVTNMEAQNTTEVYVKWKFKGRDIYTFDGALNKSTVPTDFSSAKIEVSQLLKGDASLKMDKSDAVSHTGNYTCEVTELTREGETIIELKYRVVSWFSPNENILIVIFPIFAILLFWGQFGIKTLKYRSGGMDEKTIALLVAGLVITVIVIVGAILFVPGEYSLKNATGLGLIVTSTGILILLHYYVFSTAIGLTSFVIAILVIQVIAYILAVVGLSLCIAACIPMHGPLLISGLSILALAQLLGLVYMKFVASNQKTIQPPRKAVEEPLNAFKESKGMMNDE

B1: TKKTLRT–SIRPαFc conjugate (Fc fusion)
chain 1: EEELQVIQPDKSVLVAAGETATLRCTATSLIPVGPIQWFRGAGPGRELIYNQKEGHFPRVTTVSDLTKRNNMDFSIRIGNITPADAGTYYCVKFRKGSPDDVEFKSG
chain 2: TKKTLRTC
modifications: free amino groups joined through Sulfo-SMCC to the cysteine of the peptide TKKTLRTC; one or two peptides on one SIRPαFc (MALDI-TOF-MS); sites not told | sulfhydryl of the C-terminal cysteine joined to the maleimide group of Sulfo-SMCC
Consider B1, for which the Kd was determined as 1.44 nM in the assay with human CD47 and 180 nM in the assay with collagen type I.

B2: human SIRPαFc fusion protein (Fc fusion)
chain: B1 chain 1
Molecule B2 displayed a Kd with human CD47 of 3.3 nM.
